Laboratory results reported in patent US7727950B2, “Methods and reagents for assaying protein kinase activity” (The University of Dundee, priority 2002, dated 2010).

Columns and labels:
[1] = tested on: T1, CC(C)C[C@H](NC(=O)[C@H](CCCCN)NC(=O)[C@@H](N)CCCCN)C(=O)N[C@@H](CC(N)=O)C(=O)N[C@@H](CCCNC(=N)N)C(=O)N[C@H](C(=O)N[C@@H](CC(C)C)C(=O)N[C@@H](CO)C(=O)N[C@@H](Cc1ccccc1)C(=O)N[C@@H](C)C(=O)N[C@@H](CCC(=O)O)C(=O)N1CCC[C@H]1C(=O)NCC(=O)O)[C@@H](C)O; assay: Kinetic parameters for peptide phosphorylation, radioactive filter-binding assay; type: biochemical, human; conditions: other: PKBα; Standard Substrate = GRPRTSSFAEG; 30.0 °C
T1 construct: made in house; host or cells: Sf21 insect cells
Source text: Apart from the AMP-activated protein kinase (AMPK, a gift from Drs S. Hawley and D. G. Hardie), cGMP-dependent protein kinase (PKG, a generous gift from Drs Susan Lohmann and Ulrich Walter, University of Wurzburg, Germany) and the catalytic subunit of cyclic AMP-dependent protein kinase (PKA, a gift from Dr C. Smythe), which were isolated from rat liver, bovine lung and bovine heart, respectively, all other protein kinases were expressed as either GST-fusion or His-tagged proteins (by a person, a person, Dr A. Paterson or a person, in this Division). The expressed proteins all corresponded to the human sequences apart from the rat Rho-dependent protein kinase (ROCK-II) and rat mitogen-activated protein kinase (MAPK) activated kinase-1a (MAPKAP-K1a, also called RSK). […]
All protein kinase assays were linear with respect to time. […] All papers were subsequently washed a further three times in phosphoric acid, once in acetone, then dried and counted for radioactivity. […] The plates were then washed six times (five min per wash) in PBS, 0.1% Tween 20 and binding of the phospho-specific antibody detected by incubating the plates with peroxidase-conjugated anti-sheep antibodies (Pierce). […] Signals were quantitated on LAS-1000IR software (FujiFilm). […]

[2] = tested on: CC(C)C[C@H](NC(=O)[C@@H](NC(=O)[C@H](CCCNC(=N)N)NC(=O)[C@H](C)NC(=O)[C@@H](N)CCCNC(=N)N)[C@@H](C)O)C(=O)N[C@@H](CO)C(=O)N[C@@H](Cc1ccccc1)C(=O)N[C@@H](C)C(=O)N[C@@H](CCC(=O)O)C(=O)N1CCC[C@H]1C(=O)NCC(=O)O; assay: purified protein, by the assay type; conditions: other: CaMKII; Standard Substrate = MHRQETVDCLK; 30.0 °C
Experimental: All protein kinase assays were linear with respect to time. […] The assays with the three generic peptides introduced in this example were carried out in the same buffers as follow. Unlabelled or biotinylated substrate peptides were assayed for 10 min at 30° C. in 50 μl incubations, in the presence of 0.1 mM [y^32P]ATP or unlabelled ATP. Radioactive assays were terminated by spotting 40 μl of each incubation on to phosphocellulose paper followed by immersion in 75 mM phosphoric acid. All papers were subsequently washed a further three times in phosphoric acid, once in acetone, then dried and counted for radioactivity. Non-radioactive assays were terminated by the addition of EDTA to a final concentration of 20 mM, then diluted with an equal volume of phosphate-buffered saline (PBS), containing 0.1% Tween 20 and the biotinylated peptides captured by incubation for 60 min on pre-washed, 96 well Streptavidin coated plates (Equilon A/S, Vedbaek, Denmark). […] The plates were then washed six times (five min per wash) in PBS, 0.1% Tween 20 and binding of the phospho-specific antibody detected by incubating the plates with peroxidase-conjugated anti-sheep antibodies (Pierce). […] Signals were quantitated on LAS-1000IR software (FujiFilm).

[3] = tested on: CC(C)C[C@H](NC(=O)[C@H](CCCNC(=N)N)NC(=O)[C@H](CCCNC(=N)N)NC(=O)[C@@H](N)CCCNC(=N)N)C(=O)N[C@@H](CO)C(=O)N[C@@H](Cc1ccccc1)C(=O)N[C@@H](C)C(=O)N[C@@H](CCC(=O)O)C(=O)N1CCC[C@H]1C(=O)NCC(=O)O; assay: purified protein, by the assay type; conditions: other: PKA; Standard Substrate = LRRASLG; 30.0 °C

## PKBα (Homo sapiens)
[1]
  Km: 2 µM

## CaMKII (Homo sapiens)
[2]
  Km: 300 µM

## PKA (Bos taurus)
[3]
  Km: 30 µM
